Laboratory results: US20040022780A1, “Serine protease and topical retinoid compositions useful for treatment of acne vulgarise and production of anti-aging effects” (priority 1997, published 2004)

What was measured:
Rhino mouse skin [1] = test: Visual irritation (scaling and erythema); assay type: in vivo; details: up to 1% (w/v) trypsin; not dose dependent
Rhino mouse skin [2] = test: Delivery of fluorescently labeled trypsin into hair follicles (fluorescent microscopy); assay type: in vivo
Experimental: About 100 μL of the topically active trypsin composition of Example 2 was applied to the dorsal side of each Rhino mouse of Example 1. The trypsin used in this composition was fluorescently-labeled with a protein fluorescent labeling kit available from Molecular Probes, Inc. in accordance with its accompanying protocol (1996). At one and four hours after the application of the fluorescent trypsin treatment, a 1 cm by 2 cm sample of the skin surface of each mouse was isolated from each mouse with scissors, fixed with a 10% buffered formalin solution having a pH of about 6.9-7.1 at 25° C. available from Stephens Scientific, then formed into a paraffin block according to well-known procedures, and examined with fluorescent microscopy according to well-known methods.
This Example was repeated on similar Rhino mice of Example 1, with the exception that these mice were treated daily for 5 days with the 1% (w/v) trypsin composition of Example 2 prior to the fluorescent trypsin treatment. Four hours after the application of the fluorescent trypsin treatment on the fifth day, the skins of these mice were analyzed using similar fluorescent microscopic methods. […] This loss of barrier integrity is reflected in the values for transepidermal water loss (“TEWL”) as described in Example 4 and Table 1 herein.

[3] = system: follicular epithelium of Rhino mouse skin; test: TUNEL stain of skin for apoptotic bodies; assay type: in vivo; details: 0.1% (w/v) trypsin daily for five days, sacrificed at day eight
Experimental: Rhino mice of Example 1 were treated daily with a 0.1% (w/v) trypsin composition of Example 2 for five days and sacrificed at day eight.
1 cm by 2 cm samples of the skins of untreated, vehicle treated, and trypsin treated mice were obtained via the procedure set forth in Example 3 then analyzed using a TdT-mediated dUTP-biotin nick end labeling (“TUNEL”) stain procedure as disclosed in Gavrieli et al., “Identification of Programmed Cell Death in situ Via Specific Labeling of Nuclear DNA Fragmentation”, 119 Jl. Cell Biology 493-501 (1992) (“Gavrieli”). During this procedure, the prepared skin sections were stained using an “ApopTag™ Plus In Situ Apoptosis Detection Kit” available from Oncor, Inc. as specified in the “ApopTag™ Plus In Situ Apoptosis Detection Kit” protocol by Oncor, Inc. (Feb. 1995), which is based upon the labeling of fragmented DNA ends as described in Gavrieli. FIGS. 5(a-d) show a histological analysis wherein the stain has a peroxidase end point (brown) and a methyl green counter-stain. The resulting representations of this are provided in FIGS. 5(a&b) which are vehicle treated and FIGS. 5(c&d) which are trypsin treated.

Rhino mouse skin [4] = test: Cutometer analysis of skin elasticity, Rhino mouse; assay type: in vivo
Experimental: (§1) To quantitate this effect, a cutometer analysis was performed. We used a cutometer available from Acaderm (Menlo Park, Calif.), and employed the methods described in Couturaud et al., “Skin Biomechanical Properties: In Vivo Evaluation of Influence of Age and Body Site by a Non-Invasive Method,” 1 Skin Res. and Technol. 68-73 (1995) and Elsner et al., “Mechanical Properties of Human Forearm and Vulvar Skin,” 122 Br. J. Dermatol. 607-614 (1990) which are both incorporated herein by reference in their entirety. Suction was applied through a 2 mm aperture and the corresponding skin displacement and recovery after release of the negative pressure were measured. In human studies, an improvement in the ratios of deformation parameters Ua/Uf (skin fatigue, or total recovery from the load), Ur/Uf (biological elasticity, or elastic recovery after loading), and Ur/Ue (firmness, or improvement in the deformation resistance of the skin) indicates better tonicity and elasticity of the skin. The deformation parameters Ue, Uf, Ua, and Ur are dependent, in part, on skin thickness. Consequently, ratios were used for evaluation as described in Barel et al., “Suction Method for Measurement of Skin Mechanical Properties: The Cutometer,” Handbook of Non-Invasive Methods and the Skin 335-340 (1995) which is incorporated herein by reference in its entirety.

C57B1/6 skin = test: Cutometer analysis of skin elasticity, C57B1/6 mouse; assay type: in vivo, C57B1/6 mice; details: Day 16, trypsin treated
Experimental: as §1
FIGS. 3(c) and (d), the untreated and trypsin treated skins, respectively, show the results of elastin staining.

Rhino mouse skin [5] = test: H&E histology of trypsin treated Rhino mouse skin; assay type: in vivo; details: 0.1% (w/v) trypsin in GDL liposomes daily for five days
Rhino mouse skin [6] = test: Histology after suboptimal trypsin, all-trans retinoic acid or both; assay type: in vivo; details: suboptimal dose alone: 0.005% (w/v) trypsin or 0.0005% (w/v) all-trans retinoic acid
Experimental: A first set of Rhino mice of Example 1 were treated with suboptimal doses of the trypsin composition of Example 2. […] A second set of Rhino mice of Example 1 were treated with suboptimal concentrations of the all-trans retinoic acid composition of Example 2. A third set of Rhino mice of Example 1 were treated with both suboptimal doses of the trypsin composition of Example 2 and the all-trans retinoic acid composition of Example 2. In this third set of Rhino mice, the trypsin and all-trans retinoic acid treatments were each administered daily, but at different times (i.e. trypsin in the morning and all-trans retinoic acid in the afternoon). Mice were sacrificed and their skins were examined histologically with the procedure set forth in Example 3.

[7] = system: elastin fibers in Rhino mouse skin; test: Elastin staining of paraffin skin sections, Rhino mouse; assay type: in vivo; details: trypsin treated Rhino mice vs untreated
Text: To further study this elasticity effect, skin sections of Rhino mice from Example 1 treated with the trypsin composition of Example 2 were stained for elastin on paraffin sections in accordance with the methods set forth in Kligman, L. H., “Luna's Technique, A Beautiful Stain for Elastin,” 3(2) The Amer. J. of Dermatopathol. 199-200 (1981) which is incorporated herein by reference in its entirety.

B1: trypsin (protein, UniProt P00760 24-246, looked up)
Serine protease 1: IVGGYTCGANTVPYQVSLNSGYHFCGGSLINSQWVVSAAHCYKSGIQVRLGEDNINVVEGNEQFISASKSIVHPSYNSNTLNNDIMLIKLKSAASLNSRVASISLPTSCASAGTQCLISGWGNTKSSGTSYPDVLKCLKAPILSDSSCKSAYPGQITSNMFCAGYLEGGKDSCQGDSGGPVVCSGKLQGIVSWGSGCAQKNKPGVYTKVCNYVSWIKQTIASN
notes: lyophilyzed trypsin from Sigma-Aldrich, a serine protease, in Hepes buffer mixed with GDL liposomes
visual irritation (scaling and erythema) (Rhino mouse skin [1]): minor scaling and erythema
location of fluorescent labeling in skin (Rhino mouse skin [2]; 1 hour and 4 hours after topical application of about 100 μL fluorescent trypsin composition): almost all of the fluorescent labeling was found within the utriculi and sebaceous glands
change in delivery route into utriculi and sebaceous glands (Rhino mouse skin [2]; 4 hours after fluorescent trypsin, following 5 days of daily 1% (w/v) trypsin): no major change
barrier integrity (staining at outer portion of stratum corneum) (Rhino mouse skin [2]; following 5 days of daily 1% (w/v) trypsin): some loss of barrier integrity
apoptotic bodies within the follicular epithelium (TUNEL) [3]: elimination of all the apoptotic bodies
Ua/Uf (skin fatigue, total recovery from the load) (Rhino mouse skin [4]; Day 7, trypsin treated): 0.593 ± 0.09
Ur/Ue (firmness) (Rhino mouse skin [4]; Day 7, trypsin treated): 0.557 ± 0.21
Ur/Uf (biological elasticity) (Rhino mouse skin [4]; Day 7, trypsin treated): 0.359 ± 0.22
Ua/Uf (skin fatigue, total recovery from the load) (Rhino mouse skin [4]; Day 12, trypsin treated): 0.663 ± 0.10
Ur/Ue (firmness) (Rhino mouse skin [4]; Day 12, trypsin treated): 0.666 ± 0.24
Ur/Uf (biological elasticity) (Rhino mouse skin [4]; Day 12, trypsin treated): 0.548 ± 0.11
Ua/Uf (skin fatigue, total recovery from the load) (Rhino mouse skin [4]; Day 16, trypsin treated): 0.675 ± 0.03
Ur/Ue (firmness) (Rhino mouse skin [4]; Day 16, trypsin treated): 0.733 ± 0.18
Ur/Uf (biological elasticity) (Rhino mouse skin [4]; Day 16, trypsin treated): 0.404 ± 0.08
Ua/Uf (skin fatigue, total recovery from the load) (C57B1/6 skin): 0.675 ± 0.18
Ur/Ue (firmness) (C57B1/6 skin): 0.7335 ± 0.02
Ur/Uf (biological elasticity) (C57B1/6 skin): 0.404 ± 0.1
inflammatory cells in skin histology (Rhino mouse skin [5]): no inflammatory cells
epidermis histology (H&E) (Rhino mouse skin [5]; vs untreated): hyperplastic with an increase in the number of cell layers
skin histology of treatment given alone vs untreated skin (Rhino mouse skin [6]): marked inprovement
elastin fibers around the utriculi and the sebaceous glands [7]: increased in thickness and density
